Laboratory results reported in patent publication US20180369403A1 (University of Texas, published 2018).
Where “and” joins values, the source holds several entries; their conditions need not be identical. Identical values can stand only once. Blank lines part the entries; values can stand above or below the binder they belong to.

Columns and labels:
[1] = molecular target: T1, human LGR4 (leucine-rich repeat-containing G-protein coupled receptor 4) (human, UniProt Q9BXB1 25-951); test: cell-based or functional assay
[2] = molecular target: T2, LGR5 (UniProt O75473 22-561, limits assumed); test: specificity cross check analysis
T2 sequence (looked up): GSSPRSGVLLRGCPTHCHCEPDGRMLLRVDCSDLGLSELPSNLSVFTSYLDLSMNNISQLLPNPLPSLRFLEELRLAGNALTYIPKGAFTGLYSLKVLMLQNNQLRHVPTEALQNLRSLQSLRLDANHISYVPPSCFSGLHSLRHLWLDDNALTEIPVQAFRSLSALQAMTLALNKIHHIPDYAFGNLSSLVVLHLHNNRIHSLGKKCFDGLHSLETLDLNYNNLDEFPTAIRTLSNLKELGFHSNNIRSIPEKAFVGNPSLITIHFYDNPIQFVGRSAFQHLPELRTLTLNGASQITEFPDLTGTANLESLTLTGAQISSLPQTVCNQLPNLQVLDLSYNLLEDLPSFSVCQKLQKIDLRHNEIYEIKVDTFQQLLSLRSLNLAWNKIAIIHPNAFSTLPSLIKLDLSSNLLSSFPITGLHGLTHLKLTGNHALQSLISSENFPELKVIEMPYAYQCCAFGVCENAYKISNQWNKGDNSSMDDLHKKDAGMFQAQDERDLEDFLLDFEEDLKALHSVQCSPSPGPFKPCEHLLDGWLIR

[3] = molecular target: T3, LGR6 (UniProt Q9HBX8 25-567, limits assumed); test: specificity cross check analysis
T3 sequence (looked up): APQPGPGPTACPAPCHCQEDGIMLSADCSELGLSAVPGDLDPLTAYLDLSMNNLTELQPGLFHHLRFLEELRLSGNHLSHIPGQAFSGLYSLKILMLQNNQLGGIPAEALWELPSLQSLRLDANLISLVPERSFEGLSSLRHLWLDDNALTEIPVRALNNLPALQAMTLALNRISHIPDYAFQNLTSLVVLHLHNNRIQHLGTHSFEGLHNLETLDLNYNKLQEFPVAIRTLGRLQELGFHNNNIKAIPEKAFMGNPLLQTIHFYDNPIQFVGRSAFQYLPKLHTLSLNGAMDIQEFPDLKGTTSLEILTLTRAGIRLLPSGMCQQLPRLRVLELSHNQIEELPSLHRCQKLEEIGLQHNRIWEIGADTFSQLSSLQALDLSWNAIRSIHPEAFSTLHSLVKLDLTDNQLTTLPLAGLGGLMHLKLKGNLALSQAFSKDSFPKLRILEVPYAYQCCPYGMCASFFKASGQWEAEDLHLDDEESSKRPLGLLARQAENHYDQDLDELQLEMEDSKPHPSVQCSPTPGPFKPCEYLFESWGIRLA

[4] = molecular target: T4, mouse LGR4 (mouse, UniProt A2ARI4 25-951); test: Western blot, lane HEK293-LGR4-mouse
T4 construct: whole, on cells; also called native mouse receptor; HEK293-LGR4-mouse

[5] = molecular target: T1, human LGR4 (leucine-rich …); test: binding to live HEK293 cells stably expressing human LGR4
[6] = molecular target: T1, human LGR4 (leucine-rich …); test: fluorescence cell binding, HEK293 cells overexpressing LGR4, Alexa-488 anti-rat IgG

B1: 8D2-MC-VC-PAB-MMAE (antibody, V domains shown)
VH: QVQLQQSGAELVKPGASVNLSCKTSGYTFSTSYMSWFKQIPGQTIEWVGLIYVGAGGPTYNQKFKGKASLTVDTSSSTAYMDLSSLTAEDSAVYFCARVRGYAMDAWGQGTSVTVSS
VL: DIVLTQSPATLSVTPGESVSLSCRASQDISTSIHWYQQKSNESPRLLIKYASQSISGIPSRFSGGGSGTDFTLTINRVESEDFSVYYCQQSYSLPVTFGSGTKLELKR
modifications: MMAE (auristatin) attached through an MC-VC-PAB (maleimidocaproyl-valine-citrulline-p-aminobenzyloxycarbonyl) linker; sites and chain of attachment not stated
- IC50, cell viability of IGROV1 cells (CelltiterGlo, 4 days) [1]: ~0.3 µg/mL
- IC50, cell viability of OVCAR3 cells (CelltiterGlo, 4 days) [1]: ~0.03 µg/mL
- IC50, cell viability of SKOV3 cells (CelltiterGlo, 4 days) [1]: 2.4 µg/mL

- binding result [2]: no binding
- binding result [3]: no binding
- binding result [4]: binds
- Kd [5]: ~0.1 µg/mL and ~0.7 nM
- Kd [6]: 0.5 µg/mL
B2: anti-LGR4 monoclonal antibody 8D2 (antibody, V domains shown)
VH: B1 VH
VL: B1 VL
notes: also called mAb 8D2; LGR4-mAb-8D2

- Kd [6]: 0.1 µg/mL
B3: anti-LGR4 monoclonal antibody 3G6 (antibody, V domains shown)
VH: QVQLQQSGAELVKPGSSVKISCKASGYTFTSNFMHWIKQQPGNGLEWIGWIYPGDGDTDYNQKFIGKATLTADKSSSTAYMQLSSLTSEDSAVYFCSRSNSGYNWFAYWGQGTLVTVSS
VL: DIVLTQSPPVLSASVGDRVTLSCKASQNINKNLDWYQQKHGEAPKLLIYYTNNLQTGIPSRFSGSGSGTDYTLTIRSLQPEDVATYYCYQYRTGWTFGGGTKLELKR
notes: Rat monoclonal antibody; also called clone 3G6
